Results taken from paper PMC6426329 (Journal of immunology (Baltimore, Md. : 1950), 2018).
“Also recorded” adds a separate entry of the source.

Experiments:
[1] = molecular target: Recombinant DRB4 protein (DRA1/B4*01:01) (human) (UniProt P01903); assay: peptide binding competition assay
[2] = molecular target: DRB4 protein (Homo sapiens, UniProt P01903+P13762, G164S); assay: Peptide binding competition assay; conditions: in vitro competition assay

In the case of GAD65 265–284 peptide, the IC50 [1] is reported as 10 µM.

For “PPI 12–23: truncated version of the PPI 9–28 peptide (ALLALWGPDPAA)”, the “Binding to DRB4 (in words)” value [2] was “able to bind; also recorded: detectable binding”.

In the case of VAPVIKARMMEYGTTMVSYQ [GAD65 529–548 peptide], the IC50 [1] is reported as 2.8 µM.

Molecule DVMNILLQYVVKSFDRSTKV [GAD65 113–132 peptide] has an IC50 [1] of 1.4 µM.

SDLERRILEAKQKGFVPFLV [GAD65 313–332 peptide] showed an IC50 [1] of 22 µM.

Work on NTNMFTYEIAPVFVLLEYVT [GAD65 201–220 peptide] yielded an IC50 [1] of 1.2 µM.

HVDVFKLWLMWRAKGTTGFE [GAD65 449–468 peptide] showed an IC50 [1] of 32 µM.

IAPVFVLLEYVTLKKMREII [GAD65 209–228 peptide] gave an IC50 [1] of 21 µM.

Molecule LRTLEDNEERMSRLSKVAPV [GAD65 513–532 peptide] has an IC50 [1] of 5.9 µM.

PGGAISNMYAMMIARFKMFP [GAD65 241–260 peptide] showed an IC50 [1] of 0.6 µM.

With ATHQDIDFLIEEIERLGQDL [GAD65 566–585 peptide] the IC50 [1] was 12 µM.

With DERGKMIPSDLERRILEAKQ [GAD65 305–324 peptide] the IC50 [1] was 29 µM.

With ICKKYKIWMHVDAAWGGGLL [GAD65 353–372 peptide] the IC50 [1] was 0.9 µM.

KVNFFRMVISNPAATHQDID [GAD65 553–572 peptide] showed an IC50 [1] of 7.8 µM.
